Test results reported in patent US20200277405A1, “COMPOSITION FOR ANTIBODY-DRUG CONJUGATE DIRECTED AGAINST TUMOR-CELL ASSOCIATED POLYSIALIC ACID” (Cornell University, priority 2019, published 2020).
“Also recorded” adds a separate entry of the source.

Key:
[1] = Nagae et al.; cited from earlier work
[2] = test system: SW2 (polySia positive externally) cells; experiment: Internalization of scFv735, SW2; type: cell-based, human
From the text: (§1) FIG. 15 depicts cellular internalization of a polySia-specific single-chain Fv (scFv735) constructed by genetically fusing together the DNA encoding the variable heavy (VH) and variable light (VL) genes derived from mo735 with a flexible GlySer linker.
(§2) A polySia-specific single-chain […] (scFV735) was constructed by genetically fusing together the DNA encoding the variable heavy (VH) and variable light (VL) genes derived from mo735 with a flexible GlySer linker. Alexa Fluor 488 labeled scFv735 was incubated with SW2 (polySia positive externally) and MCF7 (polySia negative externally) cells for 2 hours at different concentrations ranging from 0-1,000 nM at either 4° C. or 37° C. (internalization). After incubation, the cells were washed and extracellular fluorescence was quenched with 0.2% Trypan Blue. Intracellular Fluoresence (geometric mean fluorescence intensity, MFI) indicative of internalized scFv735 was measured by flow cytometery.

[3] = test system: MCF7 (polySia negative externally) cells; experiment: Internalization of scFv735, MCF7; type: cell-based, human; conditions: MCF7, 2 hours, 0-1,000 nM
From the text: as §1, §2

[4] = biological target: chicken brain-derived polysialylated neural cell adhesion molecule (NCAM) (chicken) (UniProt P13590); experiment: ELISA, NCAM coated on the plate, ch735 titrated (x axis 'ch735 [ng/mL]'), HRP secondary, Abs450
[5] = biological target: chicken brain-derived polysialylated neural cell adhesion molecule (NCAM) (chicken) (UniProt P13590); experiment: SPR (Biacore 3000), antibody captured on Protein A chip, NCAM 0.25-250 nM in solution, equilibrium fit with Hill slope
[6] = biological target: chicken brain-derived polysialylated neural cell adhesion molecule (NCAM) (chicken) (UniProt P13590); experiment: ELISA, chicken brain NCAM coated on the plate, ch735 titrated, anti-human IgG secondary, Abs370
[7] = biological target: chicken brain-derived polysialylated neural cell adhesion molecule (NCAM) (chicken) (UniProt P13590); experiment: ELISA, chicken brain NCAM coated on the plate, mo735 titrated, anti-mouse IgG secondary, Abs370
NCAM = NCAM (Homo sapiens, UniProt P13591); conditions: Target NCAM; literature; cited from earlier work

B1: scFv735: polySia-specific single-chain Fv fusing VH and VL of mo735 with a flexible GlySer linker (protein)
scFv: DVVMTQTPLSLPVSLGDQASISCRSSQSLVHSNGNTYLYWYLQKPGQSPKPLIYRVSNRFSGVPDRFSGSGSGTDFTLKISRVEAEDLGVYFCFQGTHVPYTFGGGTRLEIKGGGGSGGGGSGGGGSQIQLQQSGPELVRPGASVKISCKASGYTFTDYYIHWVKQRPGEGLEWIGWIYPGSGNTKYNEKFKGKATLTVDTSSSTAYMQLSSLTSEDSAVYFCARGGKFAMDYWGQGTSVTVSS
In the case of B1, the “degree of polymerization (DP) of shorter sialic acids bound” value [1] is listed as ~3, the “internalization (intracellular fluorescence)” value (from here on “internalization”) ([2]; SW2, 2 hours, 0-1,000 nM, 37° C.) is listed as “observed to internalize; also recorded: increase with increasing concentration” and the “internalization” value ([2]; temperature reduced to 4° C.) is listed as “blocked”. For the same molecule, the “internalization” value [3] was “not”.

B2: chimeric human IgG1 mAb ch735 (antibody, V domains shown)
VH: QIQLQQSGPELVRPGASVKISCKASGYTFTDYYIHWVKQRPGEGLEWIGWIYPGSGNTKYNEKFKGKATLTVDTSSSTAYMQLSSLTSEDSAVYFCARGGKFAMDYWGQGTSVTVSS
VL: DVVMTQTPLSLPVSLGDQASISCRSSQSLVHSNGNTYLYWYLQKPGQSPKPLIYRVSNRFSGVPDRFSGSGSGTDFTLKISRVEAEDLGVYFCFQGTHVPYTFGGGTRLEIK
With B2 the EC50 (read off the curve) [4] was 10 ng/mL, the Kd [5] was 4.79 nM and the EC50 (read off the curve) [6] was 10 ng/mL.

B3: mouse IgG2a mAb 735 (mo735) (antibody, V domains shown)
VH: B2 VH
VL: B2 VL
For B3, the EC50 (read off the curve) [7] was 10 ng/mL and the Kd [5] was 10.2 nM.

B4: Lorvotuzumab DM1: CD56-targeting antibody-drug conjugate, literature (conjugate, chains of the INN, looked up)
VH: QVQLVESGGGVVQPGRSLRLSCAASGFTFSSFGMHWVRQAPGKGLEWVAYISSGSFTIYYADSVKGRFTISRDNSKNTLYLQMNSLRAEDTAVYYCARMRKGYAMDYWGQGTLVTVSS
VL: DVVMTQSPLSLPVTLGQPASISCRSSQIIIHSDGNTYLEWFQQRPGQSPRRLIYKVSNRFSGVPDRFSGSGSGTDFTLKISRVEAEDVGVYYCFQGSHVPHTFGQGTKVEIK
modifications: DM1 mertansine payload
notes: CD56-targeting antibody-drug conjugate, literature
In the case of B4, the EC50 (NCAM) is given as 0.2 to 5 nM.
